Laboratory results published in US9040042B2, “Optimized antibodies that target HM1.24” (Xencor, Inc., priority 2006, dated 2015).
“And” between values parts separate entries of the source, which are not always exact repeats. Equal entries are not always repeated. Where two headings read alike, the source gives them in different places. Blank lines part the entries; values can stand above or below the substance they belong to.

What was measured:
human V158 FcγRIIIa [1] = molecular target: T1, human V158 FcγRIIIa (Homo sapiens, UniProt P08637, F176V); assay: Binding of human WT IgG1 to human V158 FcγRIIIa (Biacore, calorimetry); conditions: present study; read-out: affinity for human V158 FcγRIIIa
Method: (§1) This is consistent with the literature which indicate that binding is approximately 200-500 nM, as determined by Biacore (210 nM as shown in Okazaki et al, 2004, J Mol Bio 336:1239-49; 250 nM as shown in Lazar et al, Proc Natl Acad Sci USA 103(11):4005-4010) and calorimetry (530 nM, Okazaki et al, 2004, J Mol Bio 336:1239-49).

human F158 FcγRIIIa [2] = molecular target: T2, human F158 FcγRIIIa (Homo sapiens, UniProt P08637); assay: Binding of human WT IgG1 to human F158 FcγRIIIa (Biacore, calorimetry); conditions: present study; binding lower than the 5 uM cutoff applied; read-out: affinity for human F158 FcγRIIIa
Method: as §1

human V158 FcγRIIIa [3] = molecular target: T1, human V158 FcγRIIIa; conditions: read-out: affinity for human V158 FcγRIIIa, cited from earlier work
human F158 FcγRIIIa [4] = molecular target: T2, human F158 FcγRIIIa; conditions: read-out: affinity for human F158 FcγRIIIa, cited from earlier work
CD20 = molecular target: T3, CD20 (Homo sapiens, UniProt P11836); conditions: cited from earlier work
T3 construct: endogenous in cells; host or cells: patients' own cells (clinical treatment, reported from the literature)
T3 sequence (P11836 1-297): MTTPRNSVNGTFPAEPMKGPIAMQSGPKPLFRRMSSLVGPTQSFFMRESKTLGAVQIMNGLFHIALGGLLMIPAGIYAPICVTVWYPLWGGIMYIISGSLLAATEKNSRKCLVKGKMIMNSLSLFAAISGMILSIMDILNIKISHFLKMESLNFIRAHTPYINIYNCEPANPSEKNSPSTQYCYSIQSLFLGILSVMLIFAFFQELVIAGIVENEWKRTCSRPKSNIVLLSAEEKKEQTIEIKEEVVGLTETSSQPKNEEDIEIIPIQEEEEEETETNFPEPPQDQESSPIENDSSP

[5] = calorimetry, Okazaki et al 2004

T1 sequence (P08637 17-208 F176V limits assumed): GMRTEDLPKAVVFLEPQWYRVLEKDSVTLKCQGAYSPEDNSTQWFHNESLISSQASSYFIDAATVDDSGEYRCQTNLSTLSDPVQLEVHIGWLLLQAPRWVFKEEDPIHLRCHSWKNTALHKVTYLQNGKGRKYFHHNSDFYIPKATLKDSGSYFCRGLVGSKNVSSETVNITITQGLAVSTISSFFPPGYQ
T2 sequence (P08637 17-208 limits assumed): as the sequence (P08637 17-208 F176V limits assumed) above, with V160F counted along it

Kd (human V158 FcγRIIIa [1]): ~240 nM | Kd (human F158 FcγRIIIa [2]): > 5000 nM
Substance: human WT IgG1: Human wild type IgG1 immunoglobulin, reference for Fc receptor binding
Kd (human V158 FcγRIIIa [3]; Biacore, Okazaki et al 2004, Lazar et al): 210 nM and 250 nM | Kd (human V158 FcγRIIIa [3]; [5]): 530 nM | Kd (human V158 FcγRIIIa [3]; literature overall): 200 to 500 nM | Kd (human V158 FcγRIIIa [3]; one study, Ferrara et al 2006): 750 nM | Kd (human F158 FcγRIIIa [4]; Biacore, Ferrara et al 2006): 5000 nM | Kd (human F158 FcγRIIIa [4]; [5]): 2700 nM | Kd (human F158 FcγRIIIa [4]; literature overall): 3000 to 5000 nM

Substance: Rituxan: anti-CD20 antibody Rituxan® (rituximab)
clinical efficacy (CD20; patients homozygous or heterozygous for FcγRIIIA 158F, Carton 2002, Weng 2003): minimally effective | clinical response (CD20; patients with FcγRIIIA 158 V/V homozygous genotype, Dall'Ozzo et al. 2004): better clinical response
